Blank lines part the entries; values can stand above or below the binder they belong to.
Key:
[1] = target: T1, human serum albumin (Sigma-Aldrich A3782) (human, UniProt P02768 25-609); assay: competition ELISA on coated human serum albumin; tracer 1.5 nM [SEQ ID NO:1-cMycHis6] detected with anti-cMyc
T1 construct: Bought protein; also called HSA; human SA

[2] = target: T1, human serum albumin (Sigma-Aldrich …); assay: SPR (ProteOn), HSA immobilised, 500 nM injected, dissociation at pH 7.4
[3] = target: T2, cynomolgus monkey serum albumin (generated in-house) (cynomolgus monkey, UniProt A2V9Z4 25-608, limits assumed); assay: SPR (ProteOn XPR36), albumin immobilised, pH 7.4
T2 construct: also called cyno SA

[4] = target: T3, rat serum albumin (Sigma-Aldrich A4538) (rat, UniProt P02770 25-608); assay: SPR (ProteOn XPR36), albumin immobilised, pH 7.4
T3 construct: Bought protein; also called rat SA

[5] = target: T1, human serum albumin (Sigma-Aldrich …); assay: SPR (ProteOn XPR36), albumin immobilised, pH 7.4
[6] = target: T4, guinea pig serum albumin (Gentaur GPSA62) (guinea pig); assay: SPR (ProteOn XPR36), albumin immobilised, pH 7.4
T4 construct: also called guinea pig SA

[7] = target: T5, mouse serum albumin (Albumin Bioscience 2601) (mouse, UniProt P07724 25-608); assay: SPR (ProteOn XPR36), albumin immobilised, pH 7.4
T5 construct: Bought protein; also called mouse SA

[8] = target: T1, human serum albumin (Sigma-Aldrich …); assay: SPR (ProteOn), HSA immobilised, 500 nM injected, dissociation at pH 6.0
[9] = target: T1, human serum albumin (Sigma-Aldrich …); assay: SPR (ProteOn), HSA immobilised, 500 nM injected, dissociation at pH 5.0

IC50 (read off the curve) [1]: ~0.8 nM
B1: [His6Flag3-SEQ ID NO:15] (VHH)
VHH: EVQLVESGGGLVQAGGSLRLSCAASGLTFSSYAMGWFRQAPGKERERVVSISRGGGYTYYADSVKGRFTISRDNAENTVYLQMNSLKPEDTAVYYCAAARYWATGSEYEFDYWGQGTLVTVSS
notes: not shown: N-terminal His6-Flag3 tag

koff [2]: 0.00011 s⁻¹
Kd [3]: 0.12 nM
koff [3]: 9.4e-05 s⁻¹
kon [3]: 770000 M⁻¹ s⁻¹
Kd [4]: 21 nM
koff [4]: 0.022 s⁻¹
kon [4]: 1e+06 M⁻¹ s⁻¹
Kd [5]: 0.19 nM
koff [5]: 0.00015 s⁻¹
kon [5]: 810000 M⁻¹ s⁻¹
Kd [6]: 1.5 nM
koff [6]: 0.0021 s⁻¹
kon [6]: 1.4e+06 M⁻¹ s⁻¹
Kd [7]: 1.9 nM
koff [7]: 0.0024 s⁻¹
kon [7]: 1.2e+06 M⁻¹ s⁻¹
koff [8]: 6.9e-05 s⁻¹
koff [9]: 5.8e-05 s⁻¹
B2: serum albumin binder of SEQ ID NO:15 (T0235005D04, wild type) (VHH)
VHH: B1 VHH
notes: no tag is stated for these experiments

Reference: patent US20230050615A1 (Ablynx, published 2023)
